The text below walks through data of patent US20070123465A1 (IPF PHARMACEUTICALS, published 2007).

The target of test [1] is T1, fusion peptide of HIV gp41 (HIV-1 strain NL4-3) (HIV-1 strain NL4-3). Briefly: cell-based or functional assay.
Test [2] has as its target T1, fusion peptide of HIV gp41 (HIV-1 …). Briefly: cell-based or functional assay. The source holds these as a separate data set.

Square brackets hold non-standard residues; d marks the D form. Ends that are not written are not given here. miniPEG = PEG spacer between peptide and cysteine; dTic = O=C(O)[C@H]1Cc2ccccc2CN1; NMeL = CN[C@@H](CC(C)C)C(=O)O

B1: VIR-574 (peptide)
peptide: LEAIPMSIPPEFLFGKPFVFKG
modifications: also: homodimer: C-termini linked to both amino groups of a C-terminal lysine core -K-G
For B1, in test [1], the “IC50 NL4-3 [nM], anti-HIV activity (infection of P4-CCR5 indicator cells, beta-galactosidase reporter)” value (“IC50 NL4-3 [nM], anti-HIV activity” for short) turned out to be 3080 nM.

B2: VIR-716 (peptide)
peptide: [NMeL]EKIPCSIPPEFLFGKPFVF
modifications: also: homodimer via intermolecular disulfide between Cys6 of the two chains
As to B2, the “IC50 NL4-3 [nM], anti-HIV activity” value in test [1] is 182 nM.

B3: VIR-577 (peptide)
peptide: LEAIPMCIPPEFLFGKPFVF
modifications: also: homodimer via intermolecular disulfide between Cys7 of the two chains
As for B3, in test [1], the “IC50 NL4-3 [nM], anti-HIV activity” value came out at 3270 nM.

B4: VIR-706 (peptide)
peptide: LEAIPCGIP[dP]EV[dTic]FNKPFVF
modifications: also: homodimer via intermolecular disulfide Cys6-Cys6
Take B4: the “IC50 NL4-3 [nM], anti-HIV activity” value in test [1] amounted to 74 nM.

B5: VIR-712 (peptide)
peptide: [NMeL]EAIPCSIPPEFLFGKPFVF
modifications: also: homodimer via intermolecular disulfide between Cys6 of the two chains
As to B5, the “IC50 NL4-3 [nM], anti-HIV activity” value in test [1] was 195 nM.

B6: VIRIP (virus inhibiting peptide) (peptide)
peptide: LEAIPCSIPPEFLFGKPFVF
modifications: not fully specified
As for B6, the “IC50, inhibition of HIV infection, HIV strain NL4-3” value in test [2] was found to be 15000 nM.

B7: VIR-705 (peptide)
peptide: LEKIPCSIP[dP]EVAFNKPFVF
modifications: also: homodimer via intermolecular disulfide Cys6-Cys6
On to B7, for which, in test [1], the “IC50 NL4-3 [nM], anti-HIV activity” value is 484 nM.

B8: VIR-717 (peptide)
peptide: [NMeL]EDIPCSIPPEFLFGKPFVF
modifications: also: homodimer via intermolecular disulfide between Cys6 of the two chains
With B8, the “IC50 NL4-3 [nM], anti-HIV activity” value in test [1] was found to be 635 nM.

B9: VIR-673 (peptide)
peptide: LEAIPMSIPPEFLFGKPFVF-{miniPEG-Cys-NH2}
modifications: also: homodimer disulfide bonded through the C-terminal cysteine
On to B9, for which, in test [1], the “IC50 NL4-3 [nM], anti-HIV activity” value stood at 664 nM.
